Experimental data reported in patent publication CN114958811A.

Molecular target: RBD-His (近岸生物 货号 DRA42) (SARS-CoV-2) (UniProt P0DTC2)

With “hACE2-Fc融合蛋白 (fusion of the human ACE2 extracellular domain with the Fc fragment of human IgG1) (Fc fusion)” as the substance, how does the 亲和力 read?
The 亲和力 was 0.54 nM.
